Laboratory results published in EP2246362B1, “Polymer conjugates of mutated neublastin” (Biogen Idec MA Inc., priority 2003, dated 2004).
Each block holds one molecule with its values, some of them ahead of it.

Tests used:
[1] = molecular target: T1, c-Ret on NB41A3-mRL3 cells (UniProt P35546 29-1115, limits assumed); test: cell-based or functional assay
[2] = molecular target: T1, c-Ret on NB41A3-mRL3 cells; test: cell-based or functional assay; remark: listed apart in the source
c-Ret = molecular target: T2, c-Ret (Mus musculus, UniProt O35118+P35546); test: Kinase Receptor Activation (KIRA) ELISA: neublastin dependent phosphorylation of c-Ret in NB41A3-mRL3 cells; assay type: cell-based, murine
T2 construct: NB41A3-mRL3 cells, an adherent murine neuroblastoma cell line which expresses Ret and GFRα3; endogenous in cells; host or cells: NB41A3-mRL3 (murine neuroblastoma)
Experimental: The potency of PEGylated mutated rat neublastin was measured using neublastin dependent activation/ phosphorylation of c-Ret as a reporter for neublastin activity in an ELISA that was specific for the presence of phosphorylated RET. NB41A3-mRL3 cells, an adherent murine neuroblastoma cell line which expresses Ret and GFRα3, were plated at 2 x 10^5 cells per well in 24-well plates in Dulbecco's modified eagle medium (DMEM), supplemented with 10 % fetal bovine serum, and cultured for 18 h at 37 °C and 5 % CO2.
The cells were washed with PBS, and treated with serial dilutions of neublastin in 0.25 mL of DMEM for 10 min at 37°C and 5 % CO2. Each sample was analyzed in duplicate. The cells were washed with 1 mL of PBS, and lysed for 1h at 4 °C with 0.30 mL of 10 mM Tris HC1, pH 8.0, 0.5 % Nonidet P40, 0.2 % sodium deoxycholate, 50 mM NaF, 0.1 mM Na3 VO4,1 mM phenylmethylsulfonyl fluoride with gently rocking the plates. The lysates were further agitated by repeated pipetting and 0.25 mL of sample was transferred to a 96-well ELISA plate that had been coated with 5 µg/mL of anti-Ret mAb (AA.GE7.3) in 50 mM carbonate buffer, pH 9.6 at 4°C for 18 h, and blocked at room temperature for one hour with block buffer (20 mM Tris HC1 pH 7.5, 150 mM NaCl, 0.1% Tween-20 (TBST) containing 1 % normal mouse serum and 3 % bovine serum albumin).
After a 2 h incubation at room temperature, the wells were washed 6-times with TBST. Phosphorylated Ret was detected by incubating the wells at room temperature for 2 h with 2 µg/mL of horseradish peroxidase (HRP)-conjugated anti-phosphotyrosine 4G10 antibody in block buffer, washing 6-times with TBST, and measuring HRP activity at 450 nm with a colorometric detection reagent. The absorbance values from wells treated with lysate or with lysis buffer were measured and the background corrected signal was plotted as a function of the concentration of neublastin present in the activation mixture.
Neublastin activity was determined by its ability to stimulate c-Ret phosphorylation in NB41A3-mRL3 cells using the KIRA ELISA described in Example 3. Phosphorylated Ret was detected by incubating (2 hours) the captured receptor with HRP-conjugated phosphotyrosine antibody (4G10; 0.2 µg per well). Following the incubation, the wells were washed six times with TBST, and the HRP activity detected at 450 nm with a colorimetric assay. The absorbance values from wells treated with lysate or with lysis buffer alone were measured, background corrected, and the data plotted as a function of the concentration of neublastin present in the activation mixture.

[3] = system: Chung L5/L6 spinal nerve ligation ("SNL") model; test: Reversal of tactile allodynia and thermal hyperalgesia in the spinal nerve ligation model (Von Frey and Hargreave's tests); assay type: in vivo, Sprague-Dawley male rats
Experimental: Here, we describe studies to address the reversal effect ofpegylated N95K neublastin on tactile allodynia and thermal hyperalgesia in the Chung L5/L6 spinal nerve ligation ("SNL") model. Sprague-Dawley male rats (230 - 380g) were divided into two groups. All rats received the spinal nerve ligation. One group of rats (n=6) was administered vehicle by subcutaneous injection. A second group of rats (n=6 per group) were administered pegylated N95K neublastin (3,(4) X 10 kDa PEG NBN106-N95K) by subcutaneous injection at 10 µg/kg. 3(,4) X 10 kDa PEG NBN106-N95K, comprised neublastin protein that was E. coli-derived and contained an Asn-to-Lys amino acid substitution at position 95, then truncated (amino-terminus truncation of 7 amino acids; NBN106), and finally pegylated with an average of 3.3 PEG moieties per dimer ofNBN, using methoxylpoly(ethylene glycol)-succinimidyl propionate (SPA-PEG) with a molecular mass of 10,000 Da as the reactant. The vehicle consisted of 5 mM phosphate and 150 mM sodium chloride at pH 6.5. Subcutaneous injections were administered on days 3, 5, 7, 10, 12 and 14 following the operation (post-SNL). The Von Frey (Chaplan et al. (1994), J. Neurosci. Meth. 53: 55-63) and Hargreave's (Hargreaves et al. (1988), Pain. 32: 77-88) behavioral tests were used to monitor tactile and thermal responses, respectively. These pain responses were monitored prior to the spinal nerve ligation to establish baseline responses, on day 2 post-SNL to verify the presence of tactile and thermal hyperalgesia, and then on days 3, 5, 7, 10, 12, 14 and 15 post-SNL. To assess statistical significance of drug treatment relative to vehicle treatment, a 1-way analysis of variance (1-way ANOVA) was carried out followed by a post-hoc Student Neuman Keuls (SNK) test.

[4] = design: species or system mice; details: mouse, in vivo
From the text: The pharmokinetic properties of various PEGylated and non-PEGylated mutated neublastin products in rat and mouse models were examined (see Table 8 for summary of results). The analysis of the PEGylated […] samples are complicated by the presence of adducts comprising 2, 3 and 4 PEGs per molecule, which each will display a different PK profile. In early PK studies, mice were used to facilitate screening through a variety of candidates and routes of administration. […] This difference in bioavailability was particularly pronounced following i.p. administration. Levels in mice reached 1600 ng/mL after 7 hr and remained at 400 ng/mL after 24 hr. In contrast, rat levels were constant at 100 ng/mL for 4-48 hr. Two surprising and unexpected results emerged from the PK studies summarized in Table 8: 1) PEGylation of the amino-terminal amino acids of non-glycosylated neublastin was not sufficient to increase serum exposure substantially, and 2) PEGylation of the amino-terminal amino acid(s) of neublastin together with modification (e.g. PEGylation or glycosylation) of amino acid 95 was sufficient to increase serum exposure substantially.

[5] = Pharmacokinetic studies in rats (circulating levels after IV, s.c. or i.p. administration); assay type: in vivo, Sprague Dawley rats
Experimental: The proteins were below the threshold of detection in the serum following subcutaneous administration. To increase bioavailability of neublastin, PEGylated forms of mutated neublastin were constructed.
The pharmokinetic properties of various PEGylated and non-PEGylated mutated neublastin products in rat and mouse models were examined (see Table 8 for summary of results).
Following a 1 mg/kg IV administration in Sprague Dawley rats, peak levels of PEGylated mutated neublastin of 3000 ng/mL were detected after 7 minutes, and levels of 700 ng/mL were detected after 24 h, 200 ng/mL after 48 h, and 100 ng/mL after 72 h. In contrast for non-PEGylated mutated neublastin N95K following a 1 mg/kg IV administration, levels of 1500 ng/mL were detected after 7 minutes, but then the levels quickly dropped to 70 ng/mL after 3 h and were not detectable after 7 h. The effects of PEGylation were even more pronounced in animals treated with PEGylated neublastin by subcutaneous administration.
Following a 1 mg/kg s.c. administration, circulating levels of PEGylated neublastin reached a maximum of 200 ng/mL after 24 h and remained at this level for the duration of the three day study.
The analysis of the PEGylated N95K samples are complicated by the presence of adducts comprising 2, 3 and 4 PEGs per molecule, which each will display a different PK profile. In early PK studies, mice were used to facilitate screening through a variety of candidates and routes of administration. […] This difference in bioavailability was particularly pronounced following i.p. administration. Levels in mice reached 1600 ng/mL after 7 hr and remained at 400 ng/mL after 24 hr. In contrast, rat levels were constant at 100 ng/mL for 4-48 hr.

T1 sequence (P35546 29-1115 limits assumed): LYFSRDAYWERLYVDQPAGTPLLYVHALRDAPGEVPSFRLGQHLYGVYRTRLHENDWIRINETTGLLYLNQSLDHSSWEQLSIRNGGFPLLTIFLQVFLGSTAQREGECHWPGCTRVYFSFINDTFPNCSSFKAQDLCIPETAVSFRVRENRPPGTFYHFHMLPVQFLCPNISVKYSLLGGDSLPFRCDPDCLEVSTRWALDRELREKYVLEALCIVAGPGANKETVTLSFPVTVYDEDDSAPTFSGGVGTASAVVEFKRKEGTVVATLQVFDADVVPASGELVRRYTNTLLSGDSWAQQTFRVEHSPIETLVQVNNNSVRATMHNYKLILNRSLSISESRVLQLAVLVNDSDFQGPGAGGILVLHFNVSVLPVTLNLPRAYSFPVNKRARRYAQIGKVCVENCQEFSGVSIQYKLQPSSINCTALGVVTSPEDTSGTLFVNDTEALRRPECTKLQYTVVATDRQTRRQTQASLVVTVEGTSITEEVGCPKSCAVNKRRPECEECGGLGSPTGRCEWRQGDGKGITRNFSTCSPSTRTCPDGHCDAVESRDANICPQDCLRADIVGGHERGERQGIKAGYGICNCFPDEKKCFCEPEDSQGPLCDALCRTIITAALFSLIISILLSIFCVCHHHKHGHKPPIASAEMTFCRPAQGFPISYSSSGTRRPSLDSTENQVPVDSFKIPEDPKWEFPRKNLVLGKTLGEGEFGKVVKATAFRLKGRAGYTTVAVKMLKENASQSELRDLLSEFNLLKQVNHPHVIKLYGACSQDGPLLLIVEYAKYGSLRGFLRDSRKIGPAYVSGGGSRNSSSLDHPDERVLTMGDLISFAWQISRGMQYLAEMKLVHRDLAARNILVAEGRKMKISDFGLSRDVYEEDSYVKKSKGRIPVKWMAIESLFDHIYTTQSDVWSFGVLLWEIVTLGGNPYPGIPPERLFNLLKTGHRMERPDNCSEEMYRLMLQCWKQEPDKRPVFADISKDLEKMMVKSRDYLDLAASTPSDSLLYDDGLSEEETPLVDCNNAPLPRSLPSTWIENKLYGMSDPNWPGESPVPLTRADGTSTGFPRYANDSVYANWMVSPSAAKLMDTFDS
T2 sequence (P35546 29-1115): as the sequence (P35546 29-1115 limits assumed) above
T2 sequence (O35118 29-397): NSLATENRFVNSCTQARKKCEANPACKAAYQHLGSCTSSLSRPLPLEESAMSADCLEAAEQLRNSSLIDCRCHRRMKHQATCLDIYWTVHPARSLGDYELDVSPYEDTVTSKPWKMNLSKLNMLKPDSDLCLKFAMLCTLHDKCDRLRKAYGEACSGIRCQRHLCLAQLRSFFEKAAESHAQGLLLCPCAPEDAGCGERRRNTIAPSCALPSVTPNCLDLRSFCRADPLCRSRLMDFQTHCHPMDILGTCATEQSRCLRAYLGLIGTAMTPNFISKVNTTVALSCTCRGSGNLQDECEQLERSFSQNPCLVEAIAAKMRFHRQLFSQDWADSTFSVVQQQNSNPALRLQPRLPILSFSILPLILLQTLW

specific activity in the KIRA ELISA [1]: 10 nM
KIRA: ∼EC50 [2]: ~1.6 nM
KIRA: ∼Max Efficacy vs WT [2]: ~90%
B1: 3(,4) X 10 kDa PEG NBN106-N95K (ligand)
chain: ARATDARGCRLRSQLVPVSALGLGHSSDELIRFRFCSGSCRRARSPHDLSLASLLGAGALRSPPGSRPISQPCCRPTRYEAVSFMDVKSTWRTVDHLSATACGCLG
modifications: average of 3.3 10 kDa PEG (SPA-PEG) per dimer: on both amino-terminal amino acids and on one or both Lys95 (PEGylated amino acids 1,1,95 (,95))

KIRA ELISA (potency in activating Ret, fold less than wild-type NBN113) [1]: ~10 fold
KIRA: ∼EC50 [2]: ~11 nM
KIRA: ∼Max Efficacy vs WT [2]: > 80%
B2: 4 X 10 kDa PEG NBN106-N95K (ligand)
chain: ARATDARGCRLRSQLVPVSALGLGHSSDELIRFRFCSGSCRRARSPHDLSLASLLGAGALRSPPGSRPISQPCCRPTRYEAVSFMDVKSTWRTVDHLSATACGCLG
modifications: 10 kDa PEG on the amino-terminal amino acid and on Lys95 of each chain (PEGylated amino acids 1,1,95,95)

B3: 3 (,4) X 10 kDa PEG NBN106-N95K: mixed population of NBN106-N95K homodimers conjugated to three or four 10 kDa PEG moieties, average 3.3 PEG per dimer (conjugate)
chain: ARATDARGCRLRSQLVPVSALGLGHSSDELIRFRFCSGSCRRARSPHDLSLASLLGAGALRSPPGSRPISQPCCRPTRYEAVSFMDVKSTWRTVDHLSATACGCLG
activity / potency in the KIRA ELISA (in words) (c-Ret; compared with wild-type NBN113 / mature form): indistinguishable from that of the wild-type NBN113 material
effect of two freeze-thaw cycles on potency (c-Ret; potency in KIRA ELISA after two freeze-thaw cycles): no effect
normalization of pain behaviors (tactile and thermal hyperalgesia) ([3]; 3 µg/kg s.c. on days 3, 5, 7, 10, 12 and 14, data not shown, onset somewhat slower): significant normalization
reversal of both types of neuropathic pain (tactile allodynia and thermal hyperalgesia) ([3]; 10 µg/kg s.c. on days 3, 5, 7, 10, 12 and 14 post-SNL, rats): substantial and statistically significant reversal
time after initiation of administration at which effect on thermal sensitivity and tactile allodynia first became statistically significant ([3]; 10 µg/kg s.c., rats): 4 days
time after initiation of administration at which effect on thermal sensitivity and tactile allodynia reached a plateau ([3]; 10 µg/kg s.c., rats): approximately 4 days
levels in mice after 7 hr ([4]; ip): 1600 ng/mL
levels in mice after 24 hr ([4]; ip): 400 ng/mL
Exposure in Mice After s.c. Administration ([4]; sc): ++
levels after 7 minutes ([5]; 1 mg/kg IV, Sprague Dawley rats, 7 minutes): 3000 ng/mL
levels after 24 h ([5]; 1 mg/kg IV, Sprague Dawley rats, 24 h): 700 ng/mL
levels after 48 h ([5]; 1 mg/kg IV, Sprague Dawley rats, 48 h): 200 ng/mL
maximum circulating levels ([5]; 1 mg/kg s.c., maximum after 24 h, remained at this level for the three day study): 200 ng/mL

IC50 in the KIRA ELISA [1]: 3 to 6 nM
specific activity in the KIRA ELISA [1]: ~10 nM
KIRA: ∼Max Efficacy vs WT [2]: ~100%
B4: wild-type rat neublastin (NBN113), E. coli derived (ligand)
chain: AGTRSSRARATDARGCRLRSQLVPVSALGLGHSSDELIRFRFCSGSCRRARSPHDLSLASLLGAGALRSPPGSRPISQPCCRPTRYEAVSFMDVNSTWRTVDHLSATACGCLG
